# According to patent EP2345737A1 (Harant, Hanna, dated 2011):
# Bridges are numbered along the chain shown (N, C = ends). Where no end group is shown, it is not given here.
# Target: T1, VEGF-A truncated nascent chain (52 amino-terminal residues of VEGF-A plus His6 and two valines) translated in … (human, ε-labelled biotinylated lysine incorporated from Transcend tRNA (positions not stated))
# T1 construct: in one setting the ribosomes were dissociated with RNAse ONE before elution; also called VEGF-A nascent chains; VEGF-A-translating ribosomes
# T1 chain: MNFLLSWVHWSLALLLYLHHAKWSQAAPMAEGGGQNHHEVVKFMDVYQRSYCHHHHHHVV
# Assay: phage panning, biotinylated ribosome-bound nascent chain in streptavidin wells; selection only
row,Binder,binding result
1,"CSYPLRPPC (disulfide 1-9; also: displayed on M13 phage, fused to pIII, From the Ph.D.-C7C library; on phage; not shown: M13 pIII minor coat protein, peptide at its amino-terminus) [SYPLRPP (SEQ ID NO: 23), displayed on M13 phage]",binds
2,"CFPATAASC (disulfide 1-9; not fully specified, From the Ph.D.-C7C library; on phage; not shown: M13 pIII minor coat protein, peptide at its amino-terminus) [FPATAAS (SEQ ID NO: 36), displayed on M13 phage]",binds
3,"CSPSTSSRC (disulfide 1-9, From the Ph.D.-C7C library; on phage; not shown: M13 pIII minor coat protein, peptide at its amino-terminus) [SPSTSSR (SEQ ID NO: 34), displayed on M13 phage]",binds
4,"CPHTRGFMC (disulfide 1-9, From the Ph.D.-C7C library; on phage; not shown: M13 pIII minor coat protein, peptide at its amino-terminus) [PHTRGFM (SEQ ID NO: 33), displayed on M13 phage]",binds
5,"CVSGSSPQC (disulfide 1-9; also: displayed on M13 phage, fused to pIII, From the Ph.D.-C7C library; on phage; not shown: M13 pIII minor coat protein, peptide at its amino-terminus) [VSGSSPQ (SEQ ID NO: 43), displayed on M13 phage]",binds
6,"CAFPGMKAC (disulfide 1-9; not fully specified, From the Ph.D.-C7C library; on phage; not shown: M13 pIII minor coat protein, peptide at its amino-terminus) [AFPGMKA (SEQ ID NO: 18), displayed on M13 phage]",binds
7,"CEASSSRAC (disulfide 1-9; not fully specified, From the Ph.D.-C7C library; on phage; not shown: M13 pIII minor coat protein, peptide at its amino-terminus) [EASSSRA (SEQ ID NO: 45), displayed on M13 phage]",binds
8,"CHALSSRTC (disulfide 1-9; not fully specified, From the Ph.D.-C7C library; on phage; not shown: M13 pIII minor coat protein, peptide at its amino-terminus) [HALSSRT (SEQ ID NO: 32), displayed on M13 phage]",binds
9,"CLPVSSSSC (disulfide 1-9; not fully specified, From the Ph.D.-C7C library; on phage; not shown: M13 pIII minor coat protein, peptide at its amino-terminus) [LPVSSSS (SEQ ID NO: 24), displayed on M13 phage]",binds
10,"CSLNSDLFC (disulfide 1-9, From the Ph.D.-C7C library; on phage; not shown: M13 pIII minor coat protein, peptide at its amino-terminus) [SLNSDLF (SEQ ID NO: 26), displayed on M13 phage]",binds
11,"CEIRTPSVC (disulfide 1-9; not fully specified, From the Ph.D.-C7C library; on phage; not shown: M13 pIII minor coat protein, peptide at its amino-terminus) [EIRTPSV (SEQ ID NO: 21), displayed on M13 phage]",binds
12,"CPSLFPSMC (disulfide 1-9, From the Ph.D.-C7C library; on phage; not shown: M13 pIII minor coat protein, peptide at its amino-terminus) [PSLFPSM (SEQ ID NO: 44), displayed on M13 phage]",binds
13,"CDYPWPLPC (disulfide 1-9; not fully specified, From the Ph.D.-C7C library; on phage; not shown: M13 pIII minor coat protein, peptide at its amino-terminus) [DYPWPLP (SEQ ID NO: 40), displayed on M13 phage]",binds
14,"CLPRPLHSC (disulfide 1-9; not fully specified, From the Ph.D.-C7C library; on phage; not shown: M13 pIII minor coat protein, peptide at its amino-terminus) [LPRPLHS (SEQ ID NO: 42), displayed on M13 phage]",binds
15,"CPPPFLPLC (disulfide 1-9, From the Ph.D.-C7C library; on phage; not shown: M13 pIII minor coat protein, peptide at its amino-terminus) [PPPFLPL (SEQ ID NO: 20), displayed on M13 phage]",binds
16,"CPLHPPQPC (disulfide 1-9, From the Ph.D.-C7C library; on phage; not shown: M13 pIII minor coat protein, peptide at its amino-terminus) [PLHPPQP (SEQ ID NO: 41), displayed on M13 phage]",binds

row,Binder,binding result
1,"CSSTLHPSC (disulfide 1-9; also: displayed on M13 phage, fused to pIII, From the Ph.D.-C7C library; on phage; not shown: M13 pIII minor coat protein, peptide at its amino-terminus) [SSTLHPS (SEQ ID NO: 31), displayed on M13 phage]",binds
2,"CTLSHTRTC (disulfide 1-9; also: displayed on M13 phage, fused to pIII, From the Ph.D.-C7C library; on phage; not shown: M13 pIII minor coat protein, peptide at its amino-terminus) [TLSHTRT (SEQ ID NO: 35), displayed on M13 phage]",binds
3,"CPANFGPSC (disulfide 1-9, From the Ph.D.-C7C library; on phage; not shown: M13 pIII minor coat protein, peptide at its amino-terminus) [PANFGPS (SEQ ID NO: 16), displayed on M13 phage]",binds
4,"CLTLPNRTC (disulfide 1-9; not fully specified, From the Ph.D.-C7C library; on phage; not shown: M13 pIII minor coat protein, peptide at its amino-terminus) [LTLPNRT (SEQ ID NO: 17), displayed on M13 phage]",binds
5,"CHPMFWPIC (disulfide 1-9; not fully specified, From the Ph.D.-C7C library; on phage; not shown: M13 pIII minor coat protein, peptide at its amino-terminus) [HPMFWPI (SEQ ID NO: 29), displayed on M13 phage]",binds
6,"CPSALAFYC (disulfide 1-9, From the Ph.D.-C7C library; on phage; not shown: M13 pIII minor coat protein, peptide at its amino-terminus) [PSALAFY (SEQ ID NO: 47), displayed on M13 phage]",binds
7,"CWASQAHPC (disulfide 1-9; also: displayed on M13 phage, fused to pIII, From the Ph.D.-C7C library; on phage; not shown: M13 pIII minor coat protein, peptide at its amino-terminus) [WASQAHP (SEQ ID NO: 30), displayed on M13 phage]",binds
8,"CNASRTTLC (disulfide 1-9; not fully specified, From the Ph.D.-C7C library; on phage; not shown: M13 pIII minor coat protein, peptide at its amino-terminus) [NASRTTL (SEQ ID NO: 48), displayed on M13 phage]",binds
9,"CHALPAPDC (disulfide 1-9; not fully specified, From the Ph.D.-C7C library; on phage; not shown: M13 pIII minor coat protein, peptide at its amino-terminus) [HALPAPD (SEQ ID NO: 49), displayed on M13 phage]",binds
10,"CSRSALESC (disulfide 1-9, From the Ph.D.-C7C library; on phage; not shown: M13 pIII minor coat protein, peptide at its amino-terminus) [SRSALES (SEQ ID NO: 46), displayed on M13 phage]",binds
11,"CSPHLIPSC (disulfide 1-9, From the Ph.D.-C7C library; on phage; not shown: M13 pIII minor coat protein, peptide at its amino-terminus) [SPHLIPS (SEQ ID NO: 27), displayed on M13 phage]",binds
12,"CLPPLQRLC (disulfide 1-9; not fully specified, From the Ph.D.-C7C library; on phage; not shown: M13 pIII minor coat protein, peptide at its amino-terminus) [LPPLQRL (SEQ ID NO: 19), displayed on M13 phage]",binds
13,"CHPMFPLSC (disulfide 1-9; not fully specified, From the Ph.D.-C7C library; on phage; not shown: M13 pIII minor coat protein, peptide at its amino-terminus) [HPMFPLS (SEQ ID NO: 28), displayed on M13 phage]",binds
14,"CHAWTFNSC (disulfide 1-9; not fully specified, From the Ph.D.-C7C library; on phage; not shown: M13 pIII minor coat protein, peptide at its amino-terminus) [HAWTFNS (SEQ ID NO: 22), displayed on M13 phage]",binds
15,"CEPASSRHC (disulfide 1-9; not fully specified, From the Ph.D.-C7C library; on phage; not shown: M13 pIII minor coat protein, peptide at its amino-terminus) [EPASSRH (SEQ ID NO: 37), displayed on M13 phage]",binds
16,"CLALSAARC (disulfide 1-9; not fully specified, From the Ph.D.-C7C library; on phage; not shown: M13 pIII minor coat protein, peptide at its amino-terminus) [LALSAAR (SEQ ID NO: 25), displayed on M13 phage]",binds

# Target: T2, VEGF-A truncated nascent chain (amino-terminal 52 amino acid residues of human VEGF-A plus six histidine … (human))
# T2 construct: Translated in vitro in wheat germ lysate without stop codon; also called short VEGF-A nascent chains; bait polypeptide
# T2 chain: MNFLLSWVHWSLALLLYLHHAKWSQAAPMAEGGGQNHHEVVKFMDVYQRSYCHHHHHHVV
# Assay: phage panning by co-sedimentation with ribosome-bound nascent chain, with subtraction on non-translating ribosomes; selection only
row,Binder,binding result
1,"CPLHARLPC (disulfide 1-9, From the Ph.D.-C7C library; on phage; not shown: M13 pIII minor coat protein, peptide at its amino-terminus) [PLHARLP (SEQ ID NO:1), displayed on M13 phage]",binds

# Target: T2, VEGF-A truncated nascent chain …
# Assay: phage panning, released His-tagged nascent chain on Ni-NTA beads, DTT elution; selection only
row,Binder,binding result
1,"CFLFRLFC (disulfide 1-8; not fully specified, From the Ph.D.-C7C library; on phage; A hexapeptide; not shown: M13 pIII minor coat protein, peptide at its amino-terminus) [FLFRLF (SEQ ID NO:2), displayed on M13 phage]",binds
2,"CPMTSPPSC (disulfide 1-9, From the Ph.D.-C7C library; on phage; not shown: M13 pIII minor coat protein, peptide at its amino-terminus) [PMTSPPS (SEQ ID NO:3), displayed on M13 phage]",binds
3,"CLTRPSPSC (disulfide 1-9; not fully specified, From the Ph.D.-C7C library; on phage; not shown: M13 pIII minor coat protein, peptide at its amino-terminus) [LTRPSPS (SEQ ID NO:10), displayed on M13 phage]",binds
4,"CTASSVKLC (disulfide 1-9; also: displayed on M13 phage, fused to pIII, From the Ph.D.-C7C library; on phage; not shown: M13 pIII minor coat protein, peptide at its amino-terminus) [TASSVKL (SEQ ID NO:5), displayed on M13 phage]",binds
5,"CSVSGSPSC (disulfide 1-9; also: displayed on M13 phage, fused to pIII, From the Ph.D.-C7C library; on phage; not shown: M13 pIII minor coat protein, peptide at its amino-terminus) [SVSGSPS (SEQ ID NO:6), displayed on M13 phage]",binds
6,"CLGALSHTC (disulfide 1-9; not fully specified, From the Ph.D.-C7C library; on phage; not shown: M13 pIII minor coat protein, peptide at its amino-terminus) [LGALSHT (SEQ ID NO:14), displayed on M13 phage]",binds
7,"CSPRPSLSC (disulfide 1-9, From the Ph.D.-C7C library; on phage; not shown: M13 pIII minor coat protein, peptide at its amino-terminus) [SPRPSLS (SEQ ID NO:15), displayed on M13 phage]",binds
8,"CNPISLHLC (disulfide 1-9, From the Ph.D.-C7C library; on phage; not shown: M13 pIII minor coat protein, peptide at its amino-terminus) [NPISLHL (SEQ ID NO:4), displayed on M13 phage]",binds
9,"CSGSSPWHC (disulfide 1-9, From the Ph.D.-C7C library; on phage; not shown: M13 pIII minor coat protein, peptide at its amino-terminus) [SGSSPWH (SEQ ID NO:7), displayed on M13 phage]",binds
10,"CHPSSTHQC (disulfide 1-9; not fully specified, From the Ph.D.-C7C library; on phage; not shown: M13 pIII minor coat protein, peptide at its amino-terminus) [HPSSTHQ (SEQ ID NO:8), displayed on M13 phage]",binds
11,"CSSPLLGRC (disulfide 1-9, From the Ph.D.-C7C library; on phage; not shown: M13 pIII minor coat protein, peptide at its amino-terminus) [SSPLLGR (SEQ ID NO:12), displayed on M13 phage]",binds
12,"CSPSLLPAC (disulfide 1-9, From the Ph.D.-C7C library; on phage; not shown: M13 pIII minor coat protein, peptide at its amino-terminus) [SPSLLPA (SEQ ID NO:11), displayed on M13 phage]",binds
13,"CNLSSSWIC (disulfide 1-9, From the Ph.D.-C7C library; on phage; not shown: M13 pIII minor coat protein, peptide at its amino-terminus) [NLSSSWI (SEQ ID NO:9), displayed on M13 phage]",binds
14,"CPVAPSTHC (disulfide 1-9, From the Ph.D.-C7C library; on phage; not shown: M13 pIII minor coat protein, peptide at its amino-terminus) [PVAPSTH (SEQ ID NO:13), displayed on M13 phage]",binds
